Experimental data as given in the DeepSol protein solubility set.

Test: soluble on expression in E. coli; label from the status in PepcDB or PDB records

Sequence | soluble on expression in E. coli
MGLSNRAIIIDGKNHLLGRLASIVAKKLLQGDKVVVLRAEEIVISGNFHRSKLKYMSFLRKRCNINPARGAFHYRAPGKIFWRTVRGMLPHKTNRGNEALKNLRAYEGVPAKYQKTKSLHAPSASRFRLQPRRKFCVVGRLSHEVGWQFQDVVAKLEAKRKVKGAAYFEQKKKMDKLAVQAKKNAAPKIAQYQKIIEALGYN | not soluble
GHMDIAEPAELDADELKRVLEALLLVIDTPVTADALAAATEQPVYRVAAKLQLMADELTGRDSGIDLRHTSEGWRMYTRARFAPYVEKLLLDGARTKLTRAALETLAVVAYRQPVTRARVSAVRGVNVDAVMRTLLARGLITEVGTDADTGAVTFATTELFLERLGLTSLSELPDIAPLLPDVDTIDDLSESLDSEPRFIKLTGELASEQTLSFDVDRD | soluble
MGSDKIHHHHHHMHEPVTRILVVATNAPVPGLVAAVKQGFHQRVDYLELAERFDNRHVDYGIVRPNRMLERLEGITRFDLRLASQVNQIVRSARYQAVISLSERVGIPLALMLPQTVRHLVIFHHGMSARKLQLIRTLHLQHRWDIVAAISEAEAKGMRQALGLPAERVVALHTPVDTAFYQPQPGRQQASVVQSLGLSHRDYPTLIRAMRRLPHIPCHLRVGSSWISGRSGHEREVLPANISLQPFVPPVQLRTCYQQSRIVVVPIKASTQWSAGCTSVQAAQAMGRPVIATRRPGLAEYVDEGRTALLVEPGDADGMADAIATLWENPDRAERMGQAGRQLMEERFTIEQWLDRVVELTHKMMDWPARRSTSTMTGSAV | not soluble
MSLDRASHLKMSSEERRAHRDGTVWQLYEWQQRQQFRHGSPTAPICLGSPEFTDQGRSRSMLEVPRSISVPPSPSDIPPPGPPRVFPPRRPHTPAERVTVKPPDQRRSVDISLGDSPRRARGHAVKNSSHVDRRSMPSMGYMTHTVSAPSLHGKSADDTYLQLKKDLEYLDLKMTGRDLLKDRSLKPVKIAESDTDVKLSIFCEQDRVLQDLEDKIRALKENKDQLESVLEVLHRQMEQYRDQPQHLEKIAYQQKLLQEDLVHIRAELSRESTEMENAWNEYLKLENDVEQLKQTLQEQHRRAFFFQEKSQIQKDLWRIEDVTAGLSANKENFRILVESVKNPERKTVPLFPHEGHHHHHH | soluble
GMSEPEVPFKVVAQFPYKSDYEDDLNFEKDQEIIVTSVEDAEWYFGEYQDSNGDVIEGIFPKSFVAVQG | soluble
MALPLLPGNSFNRNVGKEKFHKSQHWGFCNNVMMLVSDEKPGIGGEPLLGQKIKPKCSIYPKGDGSDVPSWVAFDKQVLSFDAYLEEEVLDKSQTNYRIRYYKIYFYPEDDTIQVNEPEVKNSGLLQGTSIRRHRITLPPPDEDQFYTVYHFNVGTEVVFYGRTFKIYDCDAFTRNFLRKIGVKVNPPVQCPEDPYMKIRREVVEHVEPLRPYESLDTLKQFLQYHGKILCFFCLWDDSVSMFGDRRELILHYFLCDDTIEIKELLPHSSGRDALKMFLRRSKLPKNCPPRVYQPGQITDRAVLNSYGDFIKNQADGYLFDRYKLGKVDQEFYKDSDLSLGVTINVWGRKVLLYDCDEFTKSYYKSKYGIENFTSVSCKPPSPPPKIERKFPPYNGFGSEEDSLRNCIDLKPTPHRRNFKKFMEKDSYGSKSNILRFFAKLVTDKCVDLDRMFVISYYLGDDTISVFEPIERNSGIAGGMFLKRSRVKKPGQEVFKSELSEYIKAEELYIGVTVNVNGYLFRLLNADEYTLNYMEQNTDKYPFSNLKLALQKLKQEEGKSRELKQVFKAADSKHTNMVDYNTFRDILMSLTVGNLAEQEFVTIARHYRVPEGTCSDMDFLIALAHEKFKKNMFENFDTFIYSCVYEDREKKNVLPTKDIKRLCKSSRLPLSDDLLESLLSRFEDSEKQIDYKSFFSALNWRKNPVPELQPASYLKERCEDVWLGMPSPIPAKYIDYWTFLKDAFGLEEE | soluble
LDKRWLQICEDASTLCADRVKEVLEGHGFTGLHVAAAVADTMAVGDTLFLGASNPVRDASLVGMPLGGVDIFAARGAAGIDGTVSQAVGVALDVQHRDATAIRADRTVALMGDVTFLHDVGGLLGARPENLTIVVANDDGCGIFETLEIGAPEFRPSFEQAFGTPHGVHIEAIAQAYGVNYLRAETLPELIEALIDTTDSAGFNIIEAVTTRSTRRDIDKALTL | not soluble
MGSDKIHHHHHHMNADDIRAMIQPAQVHRDVYISDAVYRLEMRHLFTNAWIFVGHDSQTPNKGDYITTQVGDQPVIMVRHTDGEVKVLYNRCPHKGTKIAIDRAGNTGKFFRCPYHAWSFKTDGCLLAIPLKKGYEGTGLSESQNGKGMQAVGAVYNYRGFVFARLAEDGIGFDEFFGGSLSSIDNMVDRAPEGRVEISGPPLRYMHKCNWKMLVENQTDTCHPMVAHESSAGTAVKIYEQMGNPEPRPPAMQIIAPFMSPYEFFEDMGIRTWPNGHGHTGVNMSIHSNYDAIPGYFEAMIESHGEERAKAILDESRHNTVYFPNVMVKAPLTQLRNFIPLGADRTLAESYVYRLVGAPEQLTAMSAMYNRMINAPTSIVGHDDLEMYERAQEGLHAEGMQWVDIRRLHTGPENFETEAVENGTTERQMRNQFHAWAKFMTMSMEDAPGVAAQ | not soluble
MFLPVLDSLPSDYDLLRKTYSRMKLEWSTHDLISHCVQEEERLTNEKKEHDLVAGKVICDKKRKQYDECLEAVLGN | soluble
MRRLPPWMLGGASTGEAAARNGSQPEAPKTKAEKRPKRVQKTKEKDLNLKSDEPKRVPRKIREEAKRSPEVIQSVTVPEDDDLTVDDLLSFANEYVQRDEEGTRKERERSLSVSETTLVLDETNMTTSSQGGTKDSTAEDMLQLLMGPFYKKR | soluble
STVELCGQWDTRTVAGGRYTVSNNVWGAETAQCIEVGLETGNFTITRAEHDNGNNVAAYPNIQFAIPQPRRVQELSDVRTSWTLTPITTGRWNAAYDIFFAANPNHVTYSGDAELMIWLNKNGDVMPIGSRVATVELAGATWEVWYADNGAMNVISYVRTTPTTSVTELDLKAFIDDAVARGYIRPEWYLLSVQTGFELFTGGAGLRSADFSVTVQ | soluble
MAVIRIKKPRGPGEKDQPLEGEPKLKRIRIKTKVTDEDIKPKPKLKINLKKKKESADGKEKKNSLKLKLNLKKNEEPVKKIHKAPKLRLKPIRIPGEAYDSEASDIEDDPLIESGVILRILPDIQLEFVKNSLESGDYSGISIKWKNERHAVVTINDVMYGAILVDLPTVIEVNKSVDRKNLLKTFDVSQMLLCIRPIQEEEEVYALEAPDTEDLVVKHFEGIEDEIWENKETFLKGYNGAPLSDMEAKHLKEIALKGYDYKHGISPPLYNVRNRRFRRKMDPNEIDYVEKVVDMLLKQDKQAEEVSYDLVDKSELQARQERVSSWENFKEEPGEPLSRPALKKEEIHTIASAVGKQGAEEEGEEGMEEEEEEDLDLGAAFESEEEGSGAEGDKEQQQEEVGDEVDQDTGGEDDDDDDDGDIEAAGGESESDDEKDENRQHTELLADELNELETTLAHTKHKLSKATNPLLKSRFIDSIKKLEKEAELKRKQLQQTEDSVQKQHQHRSDAETANNVEEEEEEEEEEEEEDEVDEDEEDDEENDEDEDNVHEREHIQENKVVRELDEAPAEETLDQNDLDMMMLFGAEGDE | not soluble
MEYMVLIYRDEAFAPEYGSPEWEQMMGGFLAFNQRLIDGGHWIAGGGLQTTPSATTVRLAAGTVPKVLDGPYAETKEQLGGFYLVRADTLDEVLDLARSLPIEGAIEVRPLTYRPTGE | not soluble
MGSDKIHHHHHHMESENQEYQNEADLLSKQEEWCDEEFQEEDSFDIKEYDITTSPNDFNTKTMFDFIESGAVKIPGFQRNYVWDIKRASKLIESIIIGLPVPQIFLYEEARNRFLVIDGQQRLMSIYYFVKQRFPIYEKRIELRHIFDENGKIPGEVLHNDKYFTKFNLQLPSRLSNQRNKLHSLNYSTLDEYKITFDLRTIRNIIIKQNFPSDDNSSIYEVFNRLNSGGMNLKPQEIRASLYHSDFYTMLYRINALPEWRKIVGVEPDLHMKDIEILLRGFAMLVKGTEYKPSMAKFLNEFSSGCKKLEAQKIQYLEELFHSFLSSCSNLPEKAFYGKITNKFNLSMFESIFFAHCKKSFAQEIFIEDKLDYTQLERLKSDPEFINAIQNRTSSTANVKARLERAVSILAEEV | not soluble
MGSDKIHHHHHHDKTVKENGRTLHNGIVLPEQWPPSMIDDGVRREMSLPYISNKPTVISVNLGRQLFVDDFLIAETDMERVSHKAMFYENNPVLAPDKEWEYTFERAPYAAPFSDGIWYDESEQKFKMWYLAGAGSMHKHRQSFYTCYAESKDGKHWEKVNMDIVPGTNIVDTCDRDAATVWLDKMCPEPEKRFKLFNVEKHSGGWKIILKYSKDGIHWSEGVAQSGPVGDRTTAFYNPFTQKWAISLRQGSKADGRSRGYLENEDPEMAVSVAHSLAKGIKDKNIVLWFTPSDKELPHPEFPDVRPAIYNFDAMPYESVMLGFYAMWKGPENDLCGKLGIQKRNEIGMGYSRDGFHFYRPSYEPVMGVNETEGAWNWGNMQSVIGVPLIVGDSLYLYSSGRMKNKVMWDGFTSTGLATLRRDGFVSMHTDTEGVLVTEKIKFDGNHFFVNAQAKDLQVEIMDENGNVITGFSREDCKEMNDLNSTKQLVTWKSGKKLAALSGKIVKVKFYVTCGDLYAFWISPWDTGESRGYTGGGGPGLNPCGIDIK | not soluble
MASKTIKIMPVGDSCTEGMGGGEMGSYRTELYRLLTQAGLSIDFVGSQRSGPSSLPDKDHEGHSGWTIPQIASNINNWLNTHNPDVVFLWIGGNDLLLNGNLNATGLSNLIDQIFTVKPNVTLFVADYYPWPEAIKQYNAVIPGIVQQKANAGKKVYFVKLSEIQFDRNTDISWDGLHLSEIGYKKIANIWYKYTIDILRALAGETQLEHHHHHH | soluble
MSLAMNKVPGYNIYIGGVFALKNKVAMSGANITHVLSVIRLRPKDDLFAGYQHHRIEVDDLDDENLLEHFPSAIKFIQSGLDAGGGVLVHWPLTASSAMGKSRSATVCIAYLLRRQRNALTPQSALALLRESRPLCEPNPGFMEQLNVYYQMGEGHHHHHH | not soluble
SGRLHCTEDPVPEAVGGDMQQLNQLGAQQFSALTEVLFHFLTEQKEVERFLAQLSEFATTNQISLGSLRSIVKSLLLVPNGALKKSLTAKQVQADFITLGLSEEKATYFSEKWKQNTPTLARWAIGQTLMINQLIDMEWKFGVTSGSSELEKVGSIFLQLKLVVKKGNQTKNVYIELTLPQFYSFLHEMERVRTSMECFC | soluble
SLIENSHVKKDDIWPSGGQMTVKDLTAKYTEGGNAILENISFSISPGQRVGLLGRTGSGKSTLLSAFLRLLNTEGEIQIDGVSWDSITLEQWRKAFGVIPQKVFIFSGTFRKNLDPYEQWSDQEIWKVADEVGLRSVIEQFPGKLDFVLVDGGCVLSHGHKQLMCLARSVLSKAKILLLDEPSAHLDPVTYQIIRRTLKQAFADCTVILCEARIEAMLECDQFLVIEENKVRQYDSILRLYHYPADRFVAGFIGSPKMNFLPVKVTATAIDQVQVELPMPNRQQVWLPVESRDVQVGANMSLGIRPEHLLPSDIADVILEGEVQVVEQLGNETQIHIQIPSIRQNLVYRQNDVVLVEEGATFAIGLPPERCHLFREDGTACRRLHKEPGV | not soluble
MGSDKIHHHHHHMKNKIGSFVIADPNKCTGCRACEVACFTMHNQHNNVGYTVGTVDIPVIPRLYLVKGDNFCMPIQCRHCEDAPCLNSCPQKAIVKENNIMSVNEEKCIGCKTCLLACPFGAIDLLPQYEDGKEVEQVILDENKKIAYKCDLCKDNEKIACISACPQKALKLVTPIDDKKAKNRQAALSLLLTNK | not soluble
ADKKRALEKEDMERLMKDIPKQLHSGNRELQRARGFFILMFLLRGMPFVDLAYLKKHDIDGNVLTYRRRKTGRMLTVTLLPEAVKLIKQHMNTDPAFPYLFSLISSKEGTEEAYKEYQLALRNFNYQLMILKQVLGLTTDLSSYTARHTWATMAYYCEVHPGVISEAMGHSSITVTETYLKPFKNKKIDEANVMVFSSFRKSFSVGNCLN | not soluble
